B1: trastuzumab-MICwed MicAbody (bispecific antibody, human IgG1, kappa)
heavy: not shown
light: not shown
chain: EPHSLRYNLTVLSWDGSVQSGFLTEVHLDGQPFLRCDRQKCRAKPQGQWAEDVLGNKTWDRETRDLTGWGKDLRMTLAHIKDQKEGLHSLQEIRVCEIHEDNSTRSSQHFYYDGELFLSQNLETKEWTMPQSSRAQTLAMNVRNFLKEDAMETDTHYHAMHADCLQELRRYLKSGVVLRRTV
B2: trastuzumab-MIC25 MicAbody (bispecific antibody, human IgG1, kappa)
heavy: not shown
light: not shown
chain: EPHSLRYNLTVLSWDGSVQSGFLTEVHLDGQPFLRCDRQKCRAKPQGQWAEDVLGNKTWDRETRDLTGWGKDLRMTLAHIKDQKEGLHSLQEIRVCEIHEDNSTRSSQHFYYDGELFLSQNLETLEWTMPQSSRAQTLAMNVRNFLKEDAMETDTHYHAMRADCLSELRRYLKSGVVLRRTV
B3: rituximab-MicAbody with ULBP2 variant AA (bispecific antibody, human IgG1, kappa)
heavy: not shown
light: QIVLSQSPAILSASPGEKVTMTCRASSSVSYIHWFQQKPGSSPKPWIYATSNLASGVPVRFSGSGSGTSYSLTISRVEAEDAATYYCQQWTSNPPTFGGGTKLEIKTVAAPSVFIFPPSDEQLKSGTASVVCLLNNFYPREAKVQWKVDNALQSGNSQESVTEQDSKDSTYSLSSTLTLSKADYEKHKVYACEVTHQGLSSPVTKSFNRGECAPTSSSGGGGSEPHSLSYDITVIPKFRPGPRWCAVQGQVDEKTFLHYDCGNKTVTPVSPLGKKLNVTTAWKAQNPVLREVVDILTEQLWDIQLENYTPKEPLTLQARMSCEQKAEGHSSGSWQFSFDGQIFLLFDSEKRMWTTVHPGARKMKEKWENDKVVATMFWSWSMGDCIGWLEDFLMGMDSTLEPS
notes: also called ULBP2.AA
B4: rituximab-MicAbody with ULBP2 variant C (bispecific antibody, human IgG1, kappa)
heavy: not shown
light: QIVLSQSPAILSASPGEKVTMTCRASSSVSYIHWFQQKPGSSPKPWIYATSNLASGVPVRFSGSGSGTSYSLTISRVEAEDAATYYCQQWTSNPPTFGGGTKLEIKTVAAPSVFIFPPSDEQLKSGTASVVCLLNNFYPREAKVQWKVDNALQSGNSQESVTEQDSKDSTYSLSSTLTLSKADYEKHKVYACEVTHQGLSSPVTKSFNRGECAPTSSSGGGGSEPHSLSYDITVIPKFRPGPRWCAVQGQVDEKTFLHYDCGNKTVTPVSPLGKKLNVTTAWKAQNPVLREVVDILTEQLWDIQLENYTPKEPLTLQARMSCEQKAEGHSSGSWQFSFDGQIFLLFDSEKRMWTTVHPGARKMKEKWENDKVVATILWQTSMGDCIGWLEDFLMGMDSTLEPS
notes: also called ULBP2.C
B5: rituximab-MicAbody with ULBP2 variant AB (bispecific antibody, human IgG1, kappa)
heavy: not shown
light: QIVLSQSPAILSASPGEKVTMTCRASSSVSYIHWFQQKPGSSPKPWIYATSNLASGVPVRFSGSGSGTSYSLTISRVEAEDAATYYCQQWTSNPPTFGGGTKLEIKTVAAPSVFIFPPSDEQLKSGTASVVCLLNNFYPREAKVQWKVDNALQSGNSQESVTEQDSKDSTYSLSSTLTLSKADYEKHKVYACEVTHQGLSSPVTKSFNRGECAPTSSSGGGGSEPHSLSYDITVIPKFRPGPRWCAVQGQVDEKTFLHYDCGNKTVTPVSPLGKKLNVTTAWKAQNPVLREVVDILTEQLWDIQLENYTPKEPLTLQARMSCEQKAEGHSSGSWQFSFDGQIFLLFDSEKRMWTTVHPGARKMKEKWENDKVVATLMWQWSMGDCIGWLEDFLMGMDSTLEPS
notes: also called ULBP2.AB

Key:
Fc-eNKG2D4 (Y152V) [1] = target: T1, Fc-eNKG2D4 (Y152V) (human); test: ELISA, Fc-NKG2D coated, MicAbody titrated from 300 nM
T1 construct: also called eNKG2D4 V|Y
T1 sequence (chain, as listed by the source Y152V Y152V limits assumed): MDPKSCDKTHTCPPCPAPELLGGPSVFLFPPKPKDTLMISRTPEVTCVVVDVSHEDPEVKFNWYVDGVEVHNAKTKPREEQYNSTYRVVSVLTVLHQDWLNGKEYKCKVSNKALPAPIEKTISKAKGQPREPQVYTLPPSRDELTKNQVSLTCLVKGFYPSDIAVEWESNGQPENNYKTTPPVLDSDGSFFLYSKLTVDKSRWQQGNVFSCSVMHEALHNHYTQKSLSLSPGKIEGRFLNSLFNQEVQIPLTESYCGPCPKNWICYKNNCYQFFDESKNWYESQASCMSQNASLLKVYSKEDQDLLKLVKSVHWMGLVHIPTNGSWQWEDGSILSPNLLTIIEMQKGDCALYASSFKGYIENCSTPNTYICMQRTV
Experimental: (§1) The binding affinities of α1-α2 variants to the extracellular domains of natural (wild-type) NKG2D and non-natural eNKG2D proteins were analyzed using a plate-based ELISA method. Each of the SEC fractionated natural Fc-NKG2D and non-natural Fc-eNKG2D fusions were coated overnight at 4° C. onto separate wells of Nunc Maxisorp 96 well plates (Thermo Fisher Scientific, Waltham, Mass.) using a coating concentration of 1 μg/mL in phosphate-buffered saline (PBS). The plates were washed three times in PBS/0.05% Tween-20 (PBS-T) at 20-22° C., and blocked with 0.5% bovine serum albumin in PBS (PBS-B) for 2 hours at 20-22° C. MicAbodies were titrated against the plate-bound natural or non-natural Fc-NKG2D fusions for 60 minutes at 20-22° C. in PBS/0.5% bovine serum albumin (BSA)/0.05% Tween-20 (PBS-BT), washed 3 times with PBS-T at 20-22° C., and the bound bispecific proteins detected using an HRP-conjugated anti-human kappa in PBS-BT (Abcam, Cambridge Mass.) and developed with 1-Step™ Ultra TMB ELISA Substrate Solution (Thermo Fisher Scientific, Waltham, Mass.).

Fc-eNKG2D3 (Y152T) [2] = target: T2, Fc-eNKG2D3 (Y152T) (human); test: as above
T2 construct: also called eNKG2D3 T|Y
T2 sequence (chain, as listed by the source Y152T Y152T limits assumed): as the sequence (chain, as listed by the source Y152V Y152V limits assumed) above, with V312T counted along it
Experimental: as §1

Fc-eNKG2D2 (Y152S) [3] = target: T3, Fc-eNKG2D2 (Y152S) (human); test: as above
T3 construct: also called eNKG2D2 S|Y; not shown: human IgG1 Fc (without Fab domains)
T3 sequence (chain, as listed by the source Y152S Y152S): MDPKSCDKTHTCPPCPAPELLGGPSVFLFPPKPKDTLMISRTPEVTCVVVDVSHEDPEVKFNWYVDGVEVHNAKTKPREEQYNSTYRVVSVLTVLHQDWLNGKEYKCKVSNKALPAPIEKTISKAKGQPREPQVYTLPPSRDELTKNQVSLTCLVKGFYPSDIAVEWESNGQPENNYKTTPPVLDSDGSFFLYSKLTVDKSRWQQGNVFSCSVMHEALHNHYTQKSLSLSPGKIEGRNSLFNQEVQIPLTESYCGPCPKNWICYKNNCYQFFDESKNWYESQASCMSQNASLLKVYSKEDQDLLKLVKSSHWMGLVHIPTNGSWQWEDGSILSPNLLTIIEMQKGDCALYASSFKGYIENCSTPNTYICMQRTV
Experimental: as §1

Fc-eNKG2D14 (Y152L) [4] = target: T4, Fc-eNKG2D14 (Y152L) (human); test: as above
T4 construct: also called eNKG2D14 L|Y
T4 sequence (chain, as listed by the source Y152L Y152L limits assumed): as the sequence (chain, as listed by the source Y152V Y152V limits assumed) above, with V312L counted along it
Experimental: as §1

Fc-NKG2D.wt [5] = target: T5, Fc-NKG2D.wt (human); test: as above
T5 construct: also called NKG2D.wt Y|Y; natural Fc-NKG2D
T5 sequence (chain, as listed by the source limits assumed): as the sequence (chain, as listed by the source Y152V Y152V limits assumed) above, with V312Y counted along it
Experimental: as §1

[6] = target: T6, Fc-eNKG2D15 (Y152F/Y199F) (human); test: ELISA, Fc-NKG2D coated, MicAbody titrated from 300 nM; ELISA, Fc-eNKG2D15 as capture agent, MicAbody titrated from 300 nM
T6 construct: also called eNKG2D15 F|F
T6 sequence (chain, as listed by the source Y152F Y199F Y152F Y199F limits assumed): as the sequence (chain, as listed by the source Y152V Y152V limits assumed) above, with V312F, Y359F counted along it
Experimental: as §1

Fc-NKG2D.wt [7] = target: T5, Fc-NKG2D.wt; test: ELISA (called Kd in the text)
Experimental: as §1

Fc-eNKG2D1 (Y199F) = target: T7, Fc-eNKG2D1 (Y199F) (human); test: BLI (Octet), Fc-eNKG2D captured on AHC tips, 20 nM MicAbody
T7 construct: also called eNKG2D1 Y|F; not shown: human IgG1 Fc (without Fab domains)
T7 sequence (chain, as listed by the source Y199F Y199F): as the sequence (chain, as listed by the source Y152S Y152S) above, with S310Y, Y357F counted along it
Experimental: (§2) Additional biophysical analysis of eNKG2D variant binding to ligands was also performed with Bio-Layer Interferometry (BLI) using the FortéBio Octet system (all FortéBio LLC, Fremont, Calif.). For these experiments human NKG2D ligands MICA-Fc, MICB-Fc, ULBP1-Fc, ULBP2-Fc, ULBP3-Fc, and ULBP4-Fc were purchased from R&D Systems, Inc. (Minneapolis, Minn.). Ligands in the MicAbody format were captured on anti-human IgG Fc capture (AHC) biosensor tips. After a baselines were established, tips were exposed to a titration series of Fc-eNKG2D fusion proteins ranging from 300 nM to 0.41 nM and association/dissociation kinetics monitored with all steps performed in PBS-BT. Subsequently, Fc-eNKG2D fusion proteins were captured onto AHC tips and MicAbodies were titrated to characterize binding kinetics.
(§3) Binding analysis under the same conditions was then performed with Fc-eNKG2D fusion receptors as the capture agent, and the level of binding for each eNKG2D ranked as a percentage of the maximal binding response established by Fc-NKG2D.wt (Table 2).

Fc-eNKG2D4 (Y152V) [8] = target: T1, Fc-eNKG2D4 (Y152V); test: as above
Experimental: as §2, §3

Fc-eNKG2D3 (Y152T) [9] = target: T2, Fc-eNKG2D3 (Y152T); test: as above
Experimental: as §2, §3

Fc-eNKG2D2 (Y152S) [10] = target: T3, Fc-eNKG2D2 (Y152S); test: as above
Experimental: as §2, §3

Fc-eNKG2D14 (Y152L) [11] = target: T4, Fc-eNKG2D14 (Y152L); test: as above
Experimental: as §2, §3

Fc-NKG2D.Y152A = target: T8, Fc-NKG2D.Y152A (human); test: as above
T8 construct: also called eNKG2D A|Y; Fc-NKG2D.YA
T8 sequence (chain, as listed by the source Y152A Y152A limits assumed): as the sequence (chain, as listed by the source Y152V Y152V limits assumed) above, with V312A counted along it
Experimental: as §2, §3

[12] = target: T9, Fc-eNKG2D12 (Y152D/Y199D) (human); test: ELISA, Fc-eNKG2D coated, MicAbody titrated from 300 nM
T9 construct: also called eNKG2D12 D|D
T9 sequence (chain, as listed by the source Y152D Y199D Y152D Y199D limits assumed): as the sequence (chain, as listed by the source Y152V Y152V limits assumed) above, with V312D, Y359D counted along it
Experimental: as §1

[13] = target: T10, Fc-eNKG2D13 (Y152E/Y199E) (human); test: as above
T10 construct: also called eNKG2D13 E|E
T10 sequence (chain, as listed by the source Y152E Y199E Y152E Y199E limits assumed): as the sequence (chain, as listed by the source Y152V Y152V limits assumed) above, with V312E, Y359E counted along it
Experimental: as §1

Fc-eNKG2D6 (Y152L/Y199F) [14] = target: T11, Fc-eNKG2D6 (Y152L/Y199F) (human); test: as above
T11 construct: also called eNKG2D6 L|F
T11 sequence (chain, as listed by the source Y152L Y199F Y152L Y199F limits assumed): as the sequence (chain, as listed by the source Y152V Y152V limits assumed) above, with V312L, Y359F counted along it
Experimental: as §1

[15] = target: T6, Fc-eNKG2D15 (Y152F/Y199F); test: ELISA, Fc-NKG2D coated, MicAbody titrated from 300 nM
Experimental: as §1

Fc-eNKG2D6 (Y152L/Y199F) [16] = target: T11, Fc-eNKG2D6 (Y152L/Y199F); test: as above
Experimental: as §1

Fc-eNKG2D7 (Y152S/Y199F) = target: T12, Fc-eNKG2D7 (Y152S/Y199F) (human); test: BLI (Octet), Fc-eNKG2D captured on AHC tips, 20 nM MicAbody
T12 construct: also called eNKG2D7 S|F
T12 sequence (chain, as listed by the source Y152S Y199F Y152S Y199F limits assumed): as the sequence (chain, as listed by the source Y152V Y152V limits assumed) above, with V312S, Y359F counted along it
Experimental: as §2, §3

Fc-eNKG2D8 (Y152T/Y199F) = target: T13, Fc-eNKG2D8 (Y152T/Y199F) (human); test: as above
T13 construct: also called eNKG2D8 T|F
T13 sequence (chain, as listed by the source Y152T Y199F Y152T Y199F limits assumed): as the sequence (chain, as listed by the source Y152V Y152V limits assumed) above, with V312T, Y359F counted along it
Experimental: as §2, §3

Fc-eNKG2D9 (Y152V/Y199F) = target: T14, Fc-eNKG2D9 (Y152V/Y199F) (human); test: as above
T14 construct: also called eNKG2D9 V|F
T14 sequence (chain, as listed by the source Y152V Y199F Y152V Y199F limits assumed): as the sequence (chain, as listed by the source Y152V Y152V limits assumed) above, with Y359F counted along it
Experimental: as §2, §3

Fc-eNKG2D5 (Y152A/Y199F) = target: T15, Fc-eNKG2D5 (Y152A/Y199F) (human); test: as above
T15 construct: also called eNKG2D5 A|F; Fc-NKG2D.AF
T15 sequence (chain, as listed by the source Y152A Y199F Y152A Y199F limits assumed): as the sequence (chain, as listed by the source Y152V Y152V limits assumed) above, with V312A, Y359F counted along it
Experimental: as §2, §3

Fc-NKG2D.wt [17] = target: T5, Fc-NKG2D.wt; test: ELISA, Fc-NKG2D coated, MicAbody titrated; quantitative ELISA of Table 12, fitted EC50 on Fc-NKG2D.wt (20092-fold weaker than on AF)
Fc-NKG2D.wt [18] = target: T5, Fc-NKG2D.wt; test: ELISA, Fc-NKG2D coated, MicAbody titrated; quantitative ELISA of Table 12, fitted EC50 on Fc-NKG2D.wt (4414-fold weaker than on AF)
Fc-NKG2D.wt [19] = target: T5, Fc-NKG2D.wt; test: ELISA, Fc-NKG2D coated, MicAbody titrated; quantitative ELISA of Table 12, fitted EC50 on Fc-NKG2D.wt (10802-fold weaker than on AF)

Binder | EC50 (Fc-eNKG2D4 (Y152V) [1]) | EC50 (Fc-eNKG2D3 (Y152T) [2]) | EC50 (Fc-eNKG2D2 (Y152S) [3]) | EC50 (Fc-eNKG2D14 (Y152L) [4]) | EC50 (Fc-NKG2D.wt [5]) | EC50 (Fc-NKG2D.wt [7]) | percent of the maximal binding response of Fc-NKG2D.wt (Fc-eNKG2D1 (Y199F)) | percent of the maximal binding response of Fc-NKG2D.wt (Fc-eNKG2D4 (Y152V) [8]) | percent of the maximal binding response of Fc-NKG2D.wt (Fc-eNKG2D3 (Y152T) [9]) | percent of the maximal binding response of Fc-NKG2D.wt (Fc-eNKG2D2 (Y152S) [10]) | percent of the maximal binding response of Fc-NKG2D.wt (Fc-eNKG2D14 (Y152L) [11]) | percent of the maximal binding response of Fc-NKG2D.wt (Fc-NKG2D.Y152A) | binding result [12] | binding result [13] | also measured
B1 | 4.84 nM | 4.33 nM | 4.16 nM | 9.39 nM | 6.7 pM | 7 pM | 100% | 50% | 50% | 50% | 50% | 50% | no binding (tested: 300 nM) | no binding (tested: 300 nM) | EC50 [6]: 31.3 nM; binding result (Fc-eNKG2D6 (Y152L/Y199F) [14]): no binding (tested: 300 nM)
B2 | ~0.0043 nM | 0.0056 nM | 0.0056 nM | 0.01 nM | ~3.9 pM | ~5 pM | 100% | 100% | 100% | 100% | 100% | 100% | no binding (tested: 300 nM) | no binding (tested: 300 nM) | EC50 [15]: 0.046 nM; EC50 (Fc-eNKG2D6 (Y152L/Y199F) [16]): 0.37 nM; percent of the maximal binding response of Fc-NKG2D.wt (Fc-eNKG2D7 (Y152S/Y199F)): 50%; percent of the maximal binding response of Fc-NKG2D.wt (Fc-eNKG2D8 (Y152T/Y199F)): 50%; percent of the maximal binding response of Fc-NKG2D.wt (Fc-eNKG2D9 (Y152V/Y199F)): 100%; percent of the maximal binding response of Fc-NKG2D.wt (Fc-eNKG2D5 (Y152A/Y199F)): 50%
B3 |  |  |  |  |  |  |  |  |  |  |  |  |  |  | EC50 (Fc-NKG2D.wt [17]): 655 nM
B4 |  |  |  |  |  |  |  |  |  |  |  |  |  |  | EC50 (Fc-NKG2D.wt [18]): 130 nM
B5 |  |  |  |  |  |  |  |  |  |  |  |  |  |  | EC50 (Fc-NKG2D.wt [19]): 389 nM
